This note sets out measurements from patent US20260049148.

This data set deals with internally quenched peptide probe (MCA)-Gly-Ser-Ala-Ile-Ala-Leu-Tyr-Gly-Gly-Ser-Lys (DNP)-D-Arg with CM AIALY (SEQ ID NO: 5).

B1: human recombinant MMP2 (R&D Systems, catalog No: 902-MP) (protein)
chain: YNFFPRKPKWDKNQITYRIIGYTPDLDPETVDDAFARAFQVWSDVTPLRFSRIHDGEADIMINFGRWEHGDGYPFDGKDGLLAHAFAPGTGVGGDSHFDDDELWTLGEGQVVRVKYGNADGEYCKFPFLFNGKEYNSCTDTGRSDGFLWCSTTYNFEKDGKYGFCPHEALFTMGGNAEGQPCKFPFRFQGTSYDSCTTEGRTDGYRWCGTTEDYDRDKKYGFCPETAMSTVGGNSEGAPCVFPFTFLGNKYESCTSAGRSDGKMWCATTANYDDDRKWGFCPDQGYSLFLVAAHEFGHAMGLEHSQDPGALMAPIYTYTKNFRLSQDDIKGIQELYGASPDIDLGTGPTPTLGPVTPEICKQDIVFDGIAQIRGEIFFFKDRFIWRTVTPRDKPMGPLLVATFWPELPEKIDAVYEAPQEEKAVFFAGNEYWIYSASTLERGYPKPLTSLGLPPDVQRVDAAFNWSKNKKTYIFAGDKFWRYNEVKKKMDPGFPKLIADAWNAIPDNLDAVVDLQGGGHSYFFKGAYYLKLENQSLKSVKFGSIKSDWLGC
B1: the Probe Cleavage (kcat/KM) amounted to 39000 M⁻¹ s⁻¹ and the Probe Cleavage (pM/s) amounted to 135 pM/s.
